{"source": "paper doi:10.1101/2020.11.27.401935", "key": {"[1]": {"target": "S. cerevisiae cytochrome c oxidase (complex IV), CIV (S. cerevisiae (endogenous in strain BY 4741)) (UniProt P00427)", "sequence (P00427 whole entry, looked up, one chain of several)": "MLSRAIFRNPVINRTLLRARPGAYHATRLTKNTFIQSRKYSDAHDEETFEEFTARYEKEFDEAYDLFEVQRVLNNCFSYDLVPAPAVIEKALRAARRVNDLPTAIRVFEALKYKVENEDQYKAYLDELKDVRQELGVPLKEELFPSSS"}, "[2]": {"target": "S. cerevisiae cytochrome c oxidase (complex IV), CIV (S. cerevisiae (endogenous in strain BY 4741)) (UniProt P00427)", "assay": "cryo-EM structure"}, "[3]": {"target": "S. cerevisiae CIII2CIV1/2 respiratory supercomplex (S. cerevisiae (endogenous in strain BY 4741)) (UniProt P07143)", "sequence (P07143 whole entry, looked up, one chain of several)": "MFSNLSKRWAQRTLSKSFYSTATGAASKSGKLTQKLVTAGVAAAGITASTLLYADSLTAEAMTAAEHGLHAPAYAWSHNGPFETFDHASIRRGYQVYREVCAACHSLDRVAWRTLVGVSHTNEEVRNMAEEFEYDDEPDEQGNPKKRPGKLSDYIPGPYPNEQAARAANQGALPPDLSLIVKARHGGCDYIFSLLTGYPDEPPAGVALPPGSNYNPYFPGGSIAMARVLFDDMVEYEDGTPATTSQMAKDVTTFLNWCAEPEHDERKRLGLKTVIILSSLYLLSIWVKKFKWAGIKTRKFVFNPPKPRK", "assay": "cryo-EM structure"}}, "data": [{"substance": "S. cerevisiae cytochrome c (isoform-1 cyt. c) (from UniProt P00044 1-109) (natural protein)", "values": [{"measurement": "cyt. c:O2 oxidoreductase activity of isolated CIV at a cyt. c:CIV ratio of one", "setting": "[1]", "value": 3, "unit": "e^-/s"}, {"measurement": "cyt. c occupancy from integrated density (map with cyt. c at CIV)", "setting": "[2]", "value": 1}, {"measurement": "percent of particle images with cyt. c bound at CIV", "setting": "[2]", "value": 33, "unit": "%"}, {"measurement": "stoichiometry N", "setting": "[3]", "value": 1}]}]}
